Test results reported in patent publication US8367390B2, “Galactanase variants” (Novozymes A/S, priority 2002, dated 2013).

Columns and labels:
[1] = Activity on galactan, products by HPAEC-PAD; format: biochemical; conditions: 30° C.; BLGAL pH 6.5, AAGAL pH 4.0
Description: Lupin galactan (Megazyme) was incubated with BLGAL (0.1-10 micrograms/ml) at pH 6.5 (50 mM MES, 1 mM CaCl2) and with AAGAL (0.1-10 μg/ml) at pH 4.0 (50 mM sodium acetate, 1 mM CaCl2) at 30° C. Samples were withdrawn after 45 min to 24 hours and enzyme inactivated by heating to 95° C. for 10 min. Reaction products were analyzed using HPAEC-PAD on a Dionex chromatographic system using a CarboPac PA-100 column and a linear gradient 0 to 0.3 M sodium acetate in 0.15 M NaOH. Purified galacto-oligosaccharides were used to identify products.

[2] = format: biochemical
Description: (§1) The activity on the galacto-oligosaccharide substrates prepared as described above and on the commercially available galactobiose (Gal2, Megazyme) was studied for the four purified galactanases HIGAL, MTGAL, AAGAL and BLGAL. The buffers and temperatures used were: 25 mM sodium acetate, 0.5 mM CaCl2, 0.005% Triton X-100, pH 6.5 at 37° C. for HIGAL and MTGAL, 50 mM sodium acetate, 1 mM CaCl2, pH 4 at 30° C. for AAGAL and 50 mM Mes, 1 mM CaCl2, pH 6.5 at 30° C. for BLGAL. Enzyme concentrations used were 0.8 μg/ml for HIGAL, 0.2 microgram/ml for MTGAL, and 10 micrograms/ml for AAGAL and BLGAL. With HIGAL and MTGAL substrate concentrations were all 0.25 mg/ml, whereas 0.34 mg/ml Gal2, 0.050 mg/ml Gal3 and 0.067 mg/ml Gal4 were used for AAGAL and BLGAL. Enzyme activity in samples withdrawn after various incubation times was inactivated by heating to 95° C. for 10 min. Compositions of reaction products were analysed using HPAE-PAD (Dionex) applying a PA-100 column and a linear gradient of sodium acetate (0-0.18 M) in 0.15 M NaOH. Response factors of the individual carbohydrates were estimated from reference runs with MeGal3, MeGal4, Gal, Gal2, Gal3 and Gal4. Selected results are shown in Tables 2-8 below (the figures indicating weight percentage of glactooligosaccharides).

[3] = Activity on galactobiose (Gal2); format: biochemical; conditions: in 24 hours; buffer, pH and temperature per enzyme
Description: as §1

[4] = Activity on galactotriose (Gal3); format: biochemical; conditions: up to 24 hours; buffer, pH and temperature per enzyme
Description: as §1

[5] = pH profile of galactanase activity on lupin AZCL-galactan; format: biochemical; conditions: 15 min at 37° C., A590, unit assumed
Description: The pH profiles of the purified variants described above were established as follows: Galactanase activity at various pH was measured by mixing 500 μl 4 mg/ml lupin AZCL-galactan (Megazyme, Australia) in water with 500 μl buffer (50 mM sodium acetate, 50 mM potassium dihydrogenphosphate, 50 mM boric acid, 1 mM CaCl2, 0.01% Triton X-100 adjusted to pH 2.5, 3.5, 4.5, 5.5, 6.5, 7.5, 8.5 or 9.5 with HCl/NaOH) and 25 μl purified enzyme diluted to about 0.5-2 μg/ml in water. The mixture was incubated 15 min at 37° C., insoluble material was removed by centrifugation, and absorbance in the supernatant was measured at 590 nm.

[6] = Degradation of MeGal4, products by HPAE-PAD; format: biochemical; conditions: in words; buffer, pH and temperature per enzyme
Description: as §1

Molecule	Initial products from lupin galactan [1]	Products of Gal4 (galactotetraose) degradation [2]	Activity on Gal2 [3]	Activity on Gal3, products [4]	Galactanase activity at pH 2.5 ([5]; pH 2.5) [%]	Galactanase activity at pH 3.5 ([5]; pH 3.5) [%]	Galactanase activity at pH 4.5 ([5]; pH 4.5) [%]	Galactanase activity at pH 5.5 ([5]; pH 5.5) [%]	Galactanase activity at pH 6.5 ([5]; pH 6.5) [%]	Galactanase activity at pH 7.5 ([5]; pH 7.5) [%]	Galactanase activity at pH 8.5 ([5]; pH 8.5) [%]	Galactanase activity at pH 9.5 ([5]; pH 9.5) [%]	Products from MeGal4 [6]
AAGAL: GH Family 53 galactanase from Aspergillus aculeatus, SEQ ID NO: 3 (wild type parent) (protein, listed as Aspergillus aculeatus, mat_peptide (1)..()) ALTYRGADISSLLLLEDEGYSYKNLNGQTQALETILADAGINSIRQRVWVNPSDGSYDLDYNLELAKRVKAAGMSLYLDLHLSDTWADPSDQTTPSGWSTTDLGTLKWQLYNYTLEVCNTFAENDIDIEIISIGNEIRAGLLWPLGETSSYSNIGALLHSGAWGVKDSNLATTPKIMIHLDDGWSWDQQNYFYETVLATGELLSTDFDYFGVSYYPFYSASATLASLKTSLANLQSTYDKPVVVVETNWPVSCPNPAYAFPSDLSSIPFSVAGQQEFLEKLAAVVEATTDGLGVYYWEPAWIGNAGLGSSCADNLMVDYTTDEVYESIETLGEL	initially produces a more homogeneous mixture of galactooligomers	about equimolar amounts of galactose, galactobiose and galactotriose	Neither of the enzymes HIGAL, MTGAL, AAGAL or BLGAL had any detectable activity	degraded Gal3 to Gal2 and Gal	73	100	83	47	32	0	2	0	
BLGAL: GH Family 53 galactanase from Bacillus licheniformis, SEQ ID NO: 4 (wild type parent) (protein, listed as Bacillus licheniformis) AHRDSGTAKSGLYVEKVSGLRKDFIKGVDVSSIIALEESGVAFYNESGKKQDIFNTLKEAGVNYVRVRIWNDPYDANGNGYGGGNNDLEKAIQIGKRANANGMKLLADFHYSDFWADPAKQKAPKAWANLNFEDKKTALYQYTKQSLKAMKAAGIDIGMVQVGNETNGGLAGETDWAKMSQLFNAGSQAVRETDSNILVALHFTNPETSGRYAWIAETLHRHHVDYDVFASSYYPFWHGTLKNLTSVLTSVADTYGKKVMVAETSYTYTAEDGDGHGNTAPKNGQTLNNPVTVQGQANAVRDVIQAVSDVGEAGIGVFYWEPAWIPVGPAHRLEKNKALWETYGSGWATSYAAEYDPEDAGKWFGGSAVDNQALFDFKGRPLPSLHVFQYVDTGTPFKN	initial main product is galactotetraose with both smaller and larger oligomers also present	degrades galactotetraose mainly to galactose and galactotriose	Neither of the enzymes HIGAL, MTGAL, AAGAL or BLGAL had any detectable activity	no visible activity on Gal3 after 24 hours									MeGal and Gal3
